The source of these data is patent US20020159958A1 (REGENTS OF UNIVERSITY OF CALIFORNIA, published 2002).

The target of experiment [1] is T1, purified streptococcal antigen (SA) I/II (Streptococcus mutans, UniProt P23504 39-1532).
T1 construct: Purified antigen as coated on ELISA plates; also called SA 1/11; purified SA I/II
T1 sequence (looked up): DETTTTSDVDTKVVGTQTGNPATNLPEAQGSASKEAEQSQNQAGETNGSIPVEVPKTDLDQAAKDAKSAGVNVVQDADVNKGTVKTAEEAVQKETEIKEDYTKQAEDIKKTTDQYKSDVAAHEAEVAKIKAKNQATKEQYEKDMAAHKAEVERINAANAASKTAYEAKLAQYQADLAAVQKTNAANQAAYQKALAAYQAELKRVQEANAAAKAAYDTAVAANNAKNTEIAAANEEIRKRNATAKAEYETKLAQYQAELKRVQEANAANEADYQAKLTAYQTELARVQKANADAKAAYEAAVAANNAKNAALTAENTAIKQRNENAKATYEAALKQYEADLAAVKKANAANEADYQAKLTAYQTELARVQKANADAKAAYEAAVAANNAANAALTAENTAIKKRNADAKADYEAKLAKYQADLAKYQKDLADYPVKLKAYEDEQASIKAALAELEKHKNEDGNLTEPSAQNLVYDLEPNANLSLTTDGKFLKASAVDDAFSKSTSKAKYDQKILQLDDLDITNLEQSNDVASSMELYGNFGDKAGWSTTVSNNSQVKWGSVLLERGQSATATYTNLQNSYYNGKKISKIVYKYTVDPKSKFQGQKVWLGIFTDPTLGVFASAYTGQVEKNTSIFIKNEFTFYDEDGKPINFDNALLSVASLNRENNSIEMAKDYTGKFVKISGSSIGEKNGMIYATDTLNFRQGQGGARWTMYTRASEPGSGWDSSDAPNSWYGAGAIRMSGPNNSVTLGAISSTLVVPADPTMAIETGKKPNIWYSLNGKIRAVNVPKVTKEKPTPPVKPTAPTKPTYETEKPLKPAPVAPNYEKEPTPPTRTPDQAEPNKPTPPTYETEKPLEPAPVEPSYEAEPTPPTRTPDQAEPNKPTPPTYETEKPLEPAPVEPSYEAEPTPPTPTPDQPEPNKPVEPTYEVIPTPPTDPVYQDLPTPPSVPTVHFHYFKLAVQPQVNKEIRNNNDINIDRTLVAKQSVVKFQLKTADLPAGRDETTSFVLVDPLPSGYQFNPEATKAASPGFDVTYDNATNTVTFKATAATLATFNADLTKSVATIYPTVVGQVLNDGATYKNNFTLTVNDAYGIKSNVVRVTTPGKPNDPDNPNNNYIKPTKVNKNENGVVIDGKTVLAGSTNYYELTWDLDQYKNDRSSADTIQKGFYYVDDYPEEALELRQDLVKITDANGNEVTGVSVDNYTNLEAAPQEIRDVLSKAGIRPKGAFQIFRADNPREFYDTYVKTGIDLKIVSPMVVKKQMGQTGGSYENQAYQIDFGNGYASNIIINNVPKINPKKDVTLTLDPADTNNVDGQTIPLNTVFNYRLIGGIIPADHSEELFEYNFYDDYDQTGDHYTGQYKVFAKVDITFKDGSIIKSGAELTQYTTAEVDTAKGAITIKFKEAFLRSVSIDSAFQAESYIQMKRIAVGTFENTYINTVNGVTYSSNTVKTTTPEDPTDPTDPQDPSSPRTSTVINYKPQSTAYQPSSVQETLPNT
Briefly: ELISA on purified SA I/II, plant extract.

Experiment [2] concerns the target T1, purified streptococcal antigen (SA) I/II. The experiment in a line: ELISA on SA I/II, plant extract.

B1: protection protein (amino acids 1-606 of rabbit polyimmunoglobulin receptor) expressed alone in plants (receptor)
chain: QSSLLGPSSIFGPGEVNVLEGDSVSITCYYPTTSVTRHSRKFWCREEESGRCVTLASTGYTSQEYSGRGKLTDFPDKGEFVVTVDQLTQNDSGSYKCGVGVNGRGLDFGVNVLVSQKPEPDDVVYKQYESYTVTITCPFTYATRQLKKSFYKVEDGELVLIIDSSSKEAKDPRYKGRITLQIQSTTAKEFTVTIKHLQLNDAGQYVCQSGSDPTAEEQNVDLRLLTPGLLYGNLGGSVTFECALDSEDANAVASLRQVRGGNVVIDSQGTIDPAFEGRILFTKAENGHFSVVIAGLRKEDTGNYLCGVQSNGQSGDGPTQLRQLFVNEEIDVSRSPPVLKGFPGGSVTIRCPYNPKRSDSHLQLYLWEGSQTRHLLVDSGEGLVQKDYTGRLALFEEPGNGTFSVVLNQLTAEDEGFYWCVSDDDESLTTSVKLQIVDGEPSPTIDKFTAVQGEPVEITCHFPCKYFSSEKYWCKWNDHGCEDLPTKLSSSGDLVKCNNNLVLTLTLDSVSEDDEGWYWCGAKDGHEFEEVAAVRVELTEPAKVAVEPAKVPVDPAKAAPAPAEEKAKARCPVPRRRQWYPLSRKLRTSCPEPRLLAEEVAVQSAE
notes: also called plants expressing only protection protein; free protection protein
On to B1, for which the binding result in experiment [1] is recorded as “no binding”.

B2: mouse J chain expressed alone in plants (other, UniProt P01592 22-159, looked up)
chain: GDDEATILADNKCMCTRVTSRIIPSTEDPNEDIVERNIRIVVPLNNRENISDPTSPLRRNFVYHLSDVCKKCDPVEVELEDQVVTATQSNICNEDDGVPETCYMYDRNKCYTTMVPLRYHGETKMVQAALTPDSCYPD
notes: Tested as crude plant extract; also called plants expressing only J chain
On to B2, for which the binding result in experiment [2] is “no binding”.
